The text below walks through data of patent EP4659811A1 (Université de Strasbourg, dated 2025).

The target of assay [1] is VP1 capsid protein on BKV pseudovirions of genotype II (GBR-12; AB263920) (BK virus genotype II (GBR-12)). Kind of assay: cell-based or functional assay.
Assay [2] deals with VP1 capsid protein on BKV pseudovirions of genotype IVc2 (A-66H; AB369093) (BK virus genotype IVc2 (A-66H)). Kind of assay: cell-based or functional assay.
Assay [3] has as its target VP1 capsid protein on BKV pseudovirions of genotype Ia (BK-D; JF894228) (BK virus genotype Ia (BK-D)). As to the kind of experiment: cell-based or functional assay.
For assay [4], the target named is T1, VP1 pentamer of BKV genotype IV (recombinant) (BK virus genotype IV, UniProt P14996 30-300).
T1 construct: also called GIV; VP1 BKV subtype IV; not shown: N-terminal His-tag of pESPRIT002; C-terminal biotin acceptor peptide (BAP) of pESPRIT002
As to the kind of experiment: ELISA, coated VP1 pentamer.

Assay [5] has as its target T2, VP1 pentamer of BKV genotype II (recombinant) (BK virus genotype II, UniProt P14996 30-300).
T2 construct: also called GII; VP1 geno II pentamer; not shown: N-terminal His-tag of pESPRIT002; C-terminal biotin acceptor peptide (BAP) of pESPRIT002
Kind of assay: ELISA, coated VP1 pentamer. (ELISA stands for enzyme-linked immunosorbent assay.)

Residue numbers refer to the chain shown, from its start.

B1: antibody B3P3 (antibody, V domains shown)
VH: EVQLVESGGGVVQPGRSLRLSCVTSGFTFESYGIHWVRQAPGKGLEWVAVISNDGSIEDYAGSVKGRFTISGDKAKNTVYLQVNSLRPDDTAVYYCAKDAVGITGGSLYYSYGMDVWGQGTTVTVSS
VL: DIQMTQSPSPLSAFIGGRVTITCRASQTIKNYLNWYQQKPGEAPKLLIYTASTLQNGVPSRFSGSRSGTDFTLTITSLQPEDFATYYCQQSYSAPYSFGQGTKLEIK
In the case of B1, the “Neutralization PSV IC50” value in assay [1], in assay [2] and in assay [3] was above 50 µg/mL in each case.

B2: antibody C6P8 (antibody, V domains shown)
VH: EVQLVESGGGLVQPGGSLKLSCAASGFTFSGSEIHWVRQASGKGLEWIGRVRSRANRHATGYSESVKGRFTISRDDSKNTASLQLNSLKIEDTAVYYCTGVRGVISRYFAMDVWGQGTTVTVSS
VL: SYVLTQTPSVSVAPGQTARITCGGNNIGSNSVHWYQQKPGQAPILVVYDDSERPSGIPERFSGSNSGNTATLTISRVEGGDEADYQCQVWDRRGDLLVFGGGTKLTVL
One may read the EC50 as the concentration needed to bring the measured effect to its halfway point. As to B2, the half-maximal effective concentration (EC50) is 4 µg/mL in assay [4] and 3 µg/mL in assay [5]. Besides, the “Neutralization PSV IC50” value in assay [1] was 0.44 µg/mL; in assay [2], 1.74 µg/mL; in assay [3] it was 6.92 µg/mL.

B3: antibody C4P7 (antibody, V domains shown)
VH: EVQLLESGGGLVQPGGSLRLSCAASGFTFSSYAMSWVRQAPGKGLEWVSSLTGSGGSTYYRDSVKGRFTIFRDNSKKTLYMQMNSLRAEDTAVYYCAKEGAYSYDFWYFDLWGRGTLVTVSS
VL: EIVLTQSPGTLSLSPGERATLSCRASQTVSGNYLAWYQQKPGQSPSLLIYGASSRATGIPDRFTGSGSGTDFTLTISRLEPADFAVYYCQQYGRPLTFGGGTKVEIK
With B3, the “Neutralization PSV IC50” value in assay [1] was 0.0609 µg/mL; in assay [2] it was above 3.12 µg/mL; in assay [3] it was 0.493 µg/mL.

B4: antibody G7P3 (antibody, V domains shown)
VH: EVQLVESGGGLVQPGGSLRLSCAASGFSFGSYSMNWVRQAPGKGLEWVSHISSGSSSIYYADSVKGRFTISRDSVKNSLYLQMNNLRAEDTAVYYCARGWTGYDAFDIWGQGTMVTVSS
VL: DIQMTQSPSSLSASVGDRVTITCRASQVISNYLAWYQEKPGKVPKLLIYAASTLQSGVPSRFSGSGTGTDFTLTIRSLQPEDVATYYCQKYNNAPLTFGGGTKVEIK
For the molecule B4, the “Neutralization PSV IC50” value in assay [1] was 0.0054 µg/mL; in assay [2] it was above 50 µg/mL; in assay [3] it was 0.0008 µg/mL.

B5: antibody E8P5 (antibody, V domains shown)
VH: B4 VH with Q13H, S28R, S31T, Y95F
VL: B4 VL with K42E, R76S
Turning to B5, the “Neutralization PSV IC50” value in assay [1] is 0.004 µg/mL; in assay [2] it was above 50 µg/mL; in assay [3] it was 0.0013 µg/mL.

B6: antibody E10P5 (antibody, V domains shown)
VH: QVQLQESGPGLVKPSQTLSLTCSVSGGSISSGNYYWSWIRQPAGKGLEWIGRIYTSGNTNYNPSLKSRVTMSVDTSKNQFSLKLSSVTATDTAVYYCARVRRDGYNAFDYWGQGTLVTVSS
VL: SYELTQPPSVSVSPGQTASIDCSGHNLGDKFTCWYQQKPGQSPVLVIYQDSKRPSGIPERFSGSNSGNTATLTISGTQAMDEADYYCQAWDSDTLYVFGTGTTVTVL
In the case of B6, the “Neutralization PSV IC50” value in assay [1] was 0.0433 µg/mL; in assay [2], above 50 µg/mL; in assay [3], 0.0004 µg/mL.

B7: antibody B10P5 (antibody, V domains shown)
VH: EVQLVESGGGLVQPGGSLRLSCSASGFTFSTYTMNWVRQAPGKGLDWVSYISSRSTSIYYADSVKGRFTISRDNAKNSLYLHMTSLRAEDTAVYYCVRDRGYYGSNWFDSWGQGTLVTVSS
VL: QSALTQPRSVSGSPGQSVTISCTGTSSDVGNYNYVSWYQQHPGKAPRLMISDVTKRPSGVPDRFSGSKSGNTASLTISGLQAEDEGDYYCCAYAGSYTLVFGGGTKLTVL
On to B7, for which the “Neutralization PSV IC50” value in assay [1], in assay [2] and in assay [3] was above 50 µg/mL in each case.

B8: antibody C10P8 (antibody, V domains shown)
VH: QVQLQESGPGLVKPSQTLSLTCTVSGGSISSGRYYWSWIRQPAGKGLEWIGRVYFSGSTNYNPSLKNRVTLSVDTSKNQFSLKLSSVIAADTAVYYCARAVRDYGDSYSFDYWGQGTLVTVSS
VL: QSALTQPASVSGSPGQSITISCTGSSSDIGGYNYVSWYQVHPGKAPHLKIYDVVNRPSGVSNRFPGSKSGNTASLTISGLLADDEAYYYCCSYSIRGTPVFGGGTKLTVL
Regarding B8, the “Neutralization PSV IC50” value in assay [1], in assay [2] and in assay [3] was above 12.5 µg/mL in each case.

B9: antibody F11P5 (antibody, V domains shown)
VH: QVQLVQSGSELKKPGASVKVSCKASAYTFTNSAINWVRQAPGQGLEWMGWINTNTGNPAYAQGFRGRFVFSLDTSVSEAYLQISNLKAEDTATYYCTVPYNFGGDHNSYYFFGVDIWGQGTTVTVSS
VL: QSALTQPASVSGSPGQSITISCTGSSSDVGSYNLVSWFQQHPAKAPKVMIYEGTKRPSGVSDRFSGSKSGNTASLTISGLQAEDEADYYCCSYAGSNTFVFGTGTKVSVL
As for B9, the “Neutralization PSV IC50” value amounted to 1.56 µg/mL in assay [1], 46.5 µg/mL in assay [2] and 0.492 µg/mL in assay [3].

B10: antibody B9P6 (antibody, V domains shown)
VH: EVQLVESGGGLVQPGGSLRLSCAASGFTFRSYTMDWVRQAPGKGLEWVSCISGSSNHKYYADSVRGRFTISRDNAKNSLFLQMNSLRAEDSAVYYCAREDDILTPLYGMDVWGPGTTVTVSS
VL: EIVLTQSPDTLSLSPGARATLSCRASQSVRSNYLAWYQQKPGQAPRLLIYGASSRATAIPDRFSGSGSGTDFTLTITRLEPEDFAVYYCHQYGSSPRTFGQGTKVEIK
Regarding B10, the concentration giving a half-maximal response (EC50) in assay [4] was determined as 0.12 µg/mL; in assay [5], 0.035 µg/mL. For the same molecule, the entries for the “Neutralization PSV IC50” value in assay [1], in assay [2] and in assay [3] were 0.0002 µg/mL, 0.0176 µg/mL and 0.0371 µg/mL, respectively.

B11: antibody G11P1 (antibody, V domains shown)
VH: B10 VH with T33S, C50Y, H57Q, A61T
VL: B10 VL with G93A
As for B11, the EC50 in assay [4] was found to be 0.035 µg/mL; in assay [5], 0.055 µg/mL. The “Neutralization PSV IC50” value in assay [1] amounted to 0.0008 µg/mL; in assay [2], 0.02 µg/mL; in assay [3], 0.112 µg/mL.

B12: antibody E9P7 (antibody, V domains shown)
VH: B10 VH with A23T, F80L
VL: B10 VL
Consider B12, for which the EC50 in assay [4] stood at 0.2 µg/mL; in assay [5] it was 0.1 µg/mL. In addition, the “Neutralization PSV IC50” value in assay [1] came to 0.0003 µg/mL; in assay [2], 0.0333 µg/mL; in assay [3], 0.277 µg/mL.

B13: antibody E11P6 (antibody, V domains shown)
VH: B10 VH with T33S, C50Y, H57Q, A61T
VL: B10 VL with F72L, G93A
Consider B13, for which the concentration giving a half-maximal response (EC50) in assay [4] stood at 0.12 µg/mL; in assay [5], 0.09 µg/mL. Also, the “Neutralization PSV IC50” value in assay [1] is 0.0028 µg/mL; in assay [2], 0.0452 µg/mL; in assay [3], 0.216 µg/mL.

B14: antibody B7P3 (antibody, V domains shown)
VH: EVQLVESGGGVVQPGRSLRLSCAASGFTFSNFGMHWVRQPPGKGLEWVAVISYDGSDKFYADSVKGRFTISRDNFKNTLYVQMNSLRAEDTAVYYCAKDRVRTKYYYDHSGPFDYWGRGTLVTVSS
VL: SYVLTQPPSVSVAPGQTARIACGGNNIGSKSVHWYQQRPGQAPVLVVYDDDDRPSGIPERFSGSNSGNTATLTISRVEAGDEADYFCQVWMTNSDRPVFGGGTKLTVL
Regarding B14, the “Neutralization PSV IC50” value in assay [1] is 3.43 µg/mL; in assay [2], above 50 µg/mL; in assay [3] it was 0.0004 µg/mL.
